This is an account of results in patent US20030068675, “Position dependent recognition of GNN nucleotide triplets by zinc fingers” (published 2003).

Holding throughout (experiment): EMSA
Holding throughout (conditions): tags: MBP fusion
(In EMSA bound probe runs differently from free probe, usually more slowly.)

One series addresses T1, ZFP SBS#1094 (synthetic).
T1 chain: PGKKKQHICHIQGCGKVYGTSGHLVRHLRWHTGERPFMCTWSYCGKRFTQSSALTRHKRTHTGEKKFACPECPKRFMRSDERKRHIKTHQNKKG
An outline of the steps:
(§1)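 Purified ZFP was titrated against labeled double-stranded target (1 nM or lower, at least 10-fold below expected Kd) carrying the natural binding site with flanks. Binding buffer was 10 mM Tris pH 7.5, 100 mM KCl, 1 mM MgCl2, 0.1 mM ZnCl2, 5 mM DTT, 10% glycerol, 0.02% BSA, with equilibration for at least 45 min. Bound and free target were separated on a 10% polyacrylamide gel.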

The next series concerns the target T2, ZFP SBS#1121 (synthetic).
T2 chain: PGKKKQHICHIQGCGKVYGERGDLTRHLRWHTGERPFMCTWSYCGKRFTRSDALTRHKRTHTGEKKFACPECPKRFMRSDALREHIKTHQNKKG
Put shortly: as §1

Another series deals with T3, ZFP SBS#1122 (synthetic).
T3 chain: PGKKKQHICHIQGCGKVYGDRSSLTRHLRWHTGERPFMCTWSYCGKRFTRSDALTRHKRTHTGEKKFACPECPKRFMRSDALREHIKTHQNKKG
Put shortly:
as §1

The next series has as its target ZFP SBS#1113 (synthetic). An outline of the steps: as §1
A further series deals with T4, ZFP SBS#1097 (synthetic).
T4 chain: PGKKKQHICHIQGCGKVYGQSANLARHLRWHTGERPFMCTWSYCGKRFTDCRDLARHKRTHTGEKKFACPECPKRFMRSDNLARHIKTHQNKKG
An outline of the steps: as §1

For a further series, the target named is T5, ZFP SBS#1120 (synthetic).
T5 chain: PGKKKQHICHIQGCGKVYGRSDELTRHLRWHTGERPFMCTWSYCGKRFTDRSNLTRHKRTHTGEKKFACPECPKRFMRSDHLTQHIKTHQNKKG
An outline of the steps: as §1

Another series deals with ZFP SBS#1086 (synthetic). An outline of the steps:
as §1

The next series concerns the target T6, ZFP SBS#1083 (synthetic).
T6 chain: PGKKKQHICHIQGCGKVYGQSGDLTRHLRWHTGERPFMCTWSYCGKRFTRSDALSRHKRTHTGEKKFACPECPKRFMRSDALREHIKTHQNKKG
An outline of the steps: as §1

The target of another series is ZFP SBS#1106 (synthetic). An outline of the steps:
as §1

For another series, the target named is ZFP SBS#1105 (synthetic). Put shortly:
as §1

In another series the target is T7, ZFP SBS#1102 (synthetic).
T7 chain: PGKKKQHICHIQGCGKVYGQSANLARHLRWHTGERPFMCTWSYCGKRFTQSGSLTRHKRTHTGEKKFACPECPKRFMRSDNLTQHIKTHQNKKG
Put shortly:
as §1

A further series deals with ZFP SBS#1103 (synthetic). Put shortly: as §1
Chain of ZFP SBS#1103 (synthetic) (chain, as listed by the source): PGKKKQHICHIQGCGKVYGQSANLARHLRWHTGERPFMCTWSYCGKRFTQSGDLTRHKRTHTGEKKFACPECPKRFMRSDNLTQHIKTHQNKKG
For another series, the target named is T8, ZFP SBS#1095 (synthetic).
T8 chain: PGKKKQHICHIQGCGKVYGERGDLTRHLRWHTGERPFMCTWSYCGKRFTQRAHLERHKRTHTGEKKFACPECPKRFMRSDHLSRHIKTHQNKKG
An outline of the steps: as §1

The target in the next series is T9, ZFP SBS#1096 (synthetic).
T9 chain: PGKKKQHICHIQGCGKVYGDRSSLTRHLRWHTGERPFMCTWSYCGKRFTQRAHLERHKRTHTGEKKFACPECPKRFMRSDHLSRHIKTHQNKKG
Put shortly:
as §1

A further series concerns the target T10, ZFP SBS#469 (synthetic).
T10 chain: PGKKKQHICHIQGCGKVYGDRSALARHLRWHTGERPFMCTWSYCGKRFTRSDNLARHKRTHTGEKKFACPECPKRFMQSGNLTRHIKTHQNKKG
An outline of the steps: as §1

The next series has as its target T11, ZFP SBS#1119 (synthetic, UniProt P08047).
T11 chain: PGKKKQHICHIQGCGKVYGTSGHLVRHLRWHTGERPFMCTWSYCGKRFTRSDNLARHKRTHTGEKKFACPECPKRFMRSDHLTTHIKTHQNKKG
An outline of the steps: as §1

The target in a further series is ZFP SBS#466 (synthetic). Put shortly: as §1
Chain of ZFP SBS#466 (synthetic) (chain, as listed by the source): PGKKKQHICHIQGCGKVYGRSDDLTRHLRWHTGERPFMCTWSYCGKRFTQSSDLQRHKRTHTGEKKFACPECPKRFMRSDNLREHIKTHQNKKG
In a further series the target is ZFP SBS#467 (synthetic). An outline of the steps:
as §1

The target of another series is ZFP SBS#468 (synthetic). An outline of the steps: as §1
Chain of ZFP SBS#468 (synthetic) (chain, as listed by the source): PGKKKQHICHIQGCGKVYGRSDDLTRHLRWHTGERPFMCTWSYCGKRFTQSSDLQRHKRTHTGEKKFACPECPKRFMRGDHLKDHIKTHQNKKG
The next series concerns the target T12, ZFP SBS#1089 (synthetic).
T12 chain: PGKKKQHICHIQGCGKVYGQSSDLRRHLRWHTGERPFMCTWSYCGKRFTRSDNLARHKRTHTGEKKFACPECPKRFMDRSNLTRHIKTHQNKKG
Put shortly: as §1

In the next series the target is T13, ZFP SBS#1114 (synthetic).
T13 chain: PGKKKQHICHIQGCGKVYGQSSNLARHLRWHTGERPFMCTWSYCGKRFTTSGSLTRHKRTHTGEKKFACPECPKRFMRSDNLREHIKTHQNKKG
Put shortly: as §1

The target in a further series is ZFP SBS#1115 (synthetic). Put shortly: as §1
Chain of ZFP SBS#1115 (synthetic) (chain, as listed by the source): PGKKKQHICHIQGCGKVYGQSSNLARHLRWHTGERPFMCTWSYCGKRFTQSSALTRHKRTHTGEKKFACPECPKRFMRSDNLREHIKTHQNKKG
The target in a further series is T14, ZFP SBS#1088 (synthetic, UniProt P08047).
T14 chain: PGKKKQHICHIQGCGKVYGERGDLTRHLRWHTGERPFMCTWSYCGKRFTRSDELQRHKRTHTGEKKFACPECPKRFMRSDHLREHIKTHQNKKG
An outline of the steps: as §1

The next series addresses T15, ZFP SBS#1087 (synthetic, UniProt P08047).
T15 chain: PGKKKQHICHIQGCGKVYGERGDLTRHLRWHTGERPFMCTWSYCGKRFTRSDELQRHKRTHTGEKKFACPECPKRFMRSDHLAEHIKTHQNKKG
Put shortly: as §1

The target in another series is T16, ZFP SBS#1118 (synthetic).
T16 chain: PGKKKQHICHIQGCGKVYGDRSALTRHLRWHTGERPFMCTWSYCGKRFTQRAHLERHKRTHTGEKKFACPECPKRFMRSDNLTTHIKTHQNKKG
An outline of the steps: as §1

A further series addresses ZFP SBS#1112 (synthetic). An outline of the steps: as §1
Another series concerns the target T17, ZFP SBS#1111 (synthetic).
T17 chain: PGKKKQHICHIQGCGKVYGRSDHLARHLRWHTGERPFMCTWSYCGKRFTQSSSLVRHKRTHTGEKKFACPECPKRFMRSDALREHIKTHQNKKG
Put shortly: as §1

In a further series the target is T18, ZFP SBS#1085 (synthetic).
T18 chain: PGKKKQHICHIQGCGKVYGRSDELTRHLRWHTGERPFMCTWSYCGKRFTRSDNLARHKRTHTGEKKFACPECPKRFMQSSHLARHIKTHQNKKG
Put shortly:
as §1

The next series has as its target T19, ZFP SBS#1084 (synthetic).
T19 chain: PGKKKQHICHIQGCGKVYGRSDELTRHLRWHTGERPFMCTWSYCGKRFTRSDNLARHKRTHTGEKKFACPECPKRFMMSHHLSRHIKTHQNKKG
Put shortly: as §1

Another series concerns the target T20, ZFP SBS#1109 (synthetic).
T20 chain: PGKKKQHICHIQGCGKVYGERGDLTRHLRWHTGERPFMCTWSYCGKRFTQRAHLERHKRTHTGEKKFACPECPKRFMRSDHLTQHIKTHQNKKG
An outline of the steps: as §1

Another series has as its target T21, ZFP SBS#1110 (synthetic).
T21 chain: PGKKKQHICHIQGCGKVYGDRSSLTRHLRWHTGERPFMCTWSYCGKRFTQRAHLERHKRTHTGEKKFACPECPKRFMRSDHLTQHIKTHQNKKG
Put shortly: as §1

The next series has as its target ZFP SBS#1123 (synthetic). An outline of the steps:
as §1

Chain of ZFP SBS#1106 (synthetic) (chain, as listed by the source): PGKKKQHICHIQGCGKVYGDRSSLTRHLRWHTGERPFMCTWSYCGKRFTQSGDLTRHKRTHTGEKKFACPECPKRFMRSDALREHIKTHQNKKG
Chain of ZFP SBS#1112 (synthetic) (chain, as listed by the source): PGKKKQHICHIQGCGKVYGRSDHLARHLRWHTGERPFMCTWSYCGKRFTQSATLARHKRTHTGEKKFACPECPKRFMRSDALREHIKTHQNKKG
Chain of ZFP SBS#1123 (synthetic) (chain, as listed by the source): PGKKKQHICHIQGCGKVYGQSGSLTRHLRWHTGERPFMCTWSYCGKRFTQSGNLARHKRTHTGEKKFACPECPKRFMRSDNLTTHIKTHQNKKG
Chain of ZFP SBS#467 (synthetic) (chain, as listed by the source): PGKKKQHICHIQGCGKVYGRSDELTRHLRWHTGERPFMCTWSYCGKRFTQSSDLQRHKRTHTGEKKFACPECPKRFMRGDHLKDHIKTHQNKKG
Chain of ZFP SBS#1105 (synthetic) (chain, as listed by the source): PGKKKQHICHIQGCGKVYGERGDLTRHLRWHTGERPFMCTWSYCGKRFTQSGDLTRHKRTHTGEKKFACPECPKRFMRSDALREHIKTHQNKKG

B1: GCGGTTGGT (dsDNA)
DNA 1: GCGGTTGGT
DNA 2: ACCAACCGC
As for B1, the dissociation constant (Kd) in the series with ZFP SBS#1094 came to 12.3 nM.

B2: CTGGTGGCC (dsDNA)
DNA 1: CTGGTGGCC
DNA 2: GGCCACCAG
On to B2, for which the dissociation constant (Kd) with ZFP SBS#1121 was 2.76 nM; with ZFP SBS#1122 it was 0.101 nM.

B3: CTGGGGGCA (dsDNA)
DNA 1: CTGGGGGCA
DNA 2: TGCCCCCAG
For the molecule B3, in the series with ZFP SBS#1113, binding was put at a Kd of 0.06 nM.

B4: GAGGCCGAA (dsDNA)
DNA 1: GAGGCCGAA
DNA 2: TTCGGCCTC
In the series with ZFP SBS#1097, B4 displayed a Kd of 0.77 nM.

B5: AGGGACGCG (dsDNA)
DNA 1: AGGGACGCG
DNA 2: CGCGTCCCT
For B5, in the series with ZFP SBS#1120, binding was put at a Kd of 2.73 nM.

B6: GGGGCTCGG (dsDNA)
DNA 1: GGGGCTCGG
DNA 2: CCGAGCCCC
Regarding B6, binding with ZFP SBS#1086 was characterised by a dissociation constant (Kd) of 0.1 nM. This lies in the sub-nanomolar range.

B7: CTGGTGGCA (dsDNA)
DNA 1: CTGGTGGCA
DNA 2: TGCCACCAG
In the series with ZFP SBS#1083, B7 returned a Kd of 0.152 nM.

B8: CTGGCAGCC (dsDNA)
DNA 1: CTGGCAGCC
DNA 2: GGCTGCCAG
For the molecule B8, the equilibrium dissociation constant (Kd) with ZFP SBS#1106 worked out at 0.19 nM; with ZFP SBS#1105, 2.45 nM.

B9: AAGGCAGAA (dsDNA)
DNA 1: AAGGCAGAA
DNA 2: TTCTGCCTT
Turning to B9, the Kd was determined as 8.15 nM in the series with ZFP SBS#1102 and 1.4 nM in the series with ZFP SBS#1103.

B10: GGGGGAGCC (dsDNA)
DNA 1: GGGGGAGCC
DNA 2: GGCTCCCCC
As to B10, the equilibrium dissociation constant (Kd) in the series with ZFP SBS#1095 turned out to be 0.395 nM; with ZFP SBS#1096 it was 0.019 nM.

B11: GAAGAGGTCT (dsDNA)
DNA 1: GAAGAGGTCT
DNA 2: AGACCTCTTC
The molecule B11 returned a dissociation constant (Kd) in the series with ZFP SBS#469 of 13.5 nM.

B12: TGGGAGGGT (dsDNA)
DNA 1: TGGGAGGGT
DNA 2: ACCCTCCCA
B12 registered an equilibrium dissociation constant (Kd) with ZFP SBS#1119 of 0.1 nM.

B13: CAGGCTGCGC (dsDNA)
DNA 1: CAGGCTGCGC
DNA 2: GCGCAGCCTG
Consider B13, for which the Kd with ZFP SBS#466 worked out at 65 nM; with ZFP SBS#467, 800 nM; in the series with ZFP SBS#468 it was 42 nM.

B14: GACGAGGCT (dsDNA)
DNA 1: GACGAGGCT
DNA 2: AGCCTCGTC
In turn, B14 returned a Kd with ZFP SBS#1089 of 0.171 nM.

B15: CAGGTTGAT (dsDNA)
DNA 1: CAGGTTGAT
DNA 2: ATCAACCTG
Regarding B15, the Kd with ZFP SBS#1114 is 2.75 nM; with ZFP SBS#1115, 0.7 nM.

B16: CGGGCGGCC (dsDNA)
DNA 1: CGGGCGGCC
DNA 2: GGCCGCCCG
Turning to B16, the dissociation constant (Kd) is 0.905 nM with ZFP SBS#1088 and 1.24 nM in the series with ZFP SBS#1087.

B17: TAGGGAGTC (dsDNA)
DNA 1: TAGGGAGTC
DNA 2: GACTCCCTA
For the molecule B17, binding with ZFP SBS#1118 was put at a Kd of 1.4 nM.

B18: CTGGTAGGG (dsDNA)
DNA 1: CTGGTAGGG
DNA 2: CCCTACCAG
In the case of B18, the Kd is 0.125 nM in the series with ZFP SBS#1112 and 0.095 nM with ZFP SBS#1111.

B19: GGTGAGGCG (dsDNA)
DNA 1: GGTGAGGCG
DNA 2: CGCCTCACC
As for B19, the Kd with ZFP SBS#1085 was 0.46 nM; with ZFP SBS#1084, 0.5 nM.

B20: AGGGGAGCC (dsDNA)
DNA 1: AGGGGAGCC
DNA 2: GGCTCCCCT
On to B20, for which the Kd in the series with ZFP SBS#1109 amounted to 0.347 nM; in the series with ZFP SBS#1110, 0.095 nM.

B21: TAGGAAGCA (dsDNA)
DNA 1: TAGGAAGCA
DNA 2: TGCTTCCTA
In the series with ZFP SBS#1123, B21 registered a Kd of 0.065 nM.

One may read the Kd as the constant that tells how readily two partners part at equilibrium. Read a high Kd as lower affinity.
